Results on one substance are retold here after patent US7256011.

The series deals with PL-FXa-b2AR fusion protein (ED - Factor Xa cleavage site - beta2-adrenergic receptor) on HEK293 transient transfectant cells.

As for Factor Xa, the “EFC activity (relative luminescent units, RLU)” value is recorded as “a difference in about 30,000 RLUs was observed over a range in concentration of FXa of about 10^-3 to 10^1 ug/mL”.
